We go through three molecules from US8765444 (BOARD OF TRUSTEES OF THE UNIVERSITY OF ILLINOIS, dated 2014).

The target of this test is T1, TBK1 (as used in Example 6; construct not named) (Homo sapiens (Human), UniProt Q9UHD2 1-729).
T1 construct: also called HA-TBK1 (constructed, probably the one used)
T1 sequence: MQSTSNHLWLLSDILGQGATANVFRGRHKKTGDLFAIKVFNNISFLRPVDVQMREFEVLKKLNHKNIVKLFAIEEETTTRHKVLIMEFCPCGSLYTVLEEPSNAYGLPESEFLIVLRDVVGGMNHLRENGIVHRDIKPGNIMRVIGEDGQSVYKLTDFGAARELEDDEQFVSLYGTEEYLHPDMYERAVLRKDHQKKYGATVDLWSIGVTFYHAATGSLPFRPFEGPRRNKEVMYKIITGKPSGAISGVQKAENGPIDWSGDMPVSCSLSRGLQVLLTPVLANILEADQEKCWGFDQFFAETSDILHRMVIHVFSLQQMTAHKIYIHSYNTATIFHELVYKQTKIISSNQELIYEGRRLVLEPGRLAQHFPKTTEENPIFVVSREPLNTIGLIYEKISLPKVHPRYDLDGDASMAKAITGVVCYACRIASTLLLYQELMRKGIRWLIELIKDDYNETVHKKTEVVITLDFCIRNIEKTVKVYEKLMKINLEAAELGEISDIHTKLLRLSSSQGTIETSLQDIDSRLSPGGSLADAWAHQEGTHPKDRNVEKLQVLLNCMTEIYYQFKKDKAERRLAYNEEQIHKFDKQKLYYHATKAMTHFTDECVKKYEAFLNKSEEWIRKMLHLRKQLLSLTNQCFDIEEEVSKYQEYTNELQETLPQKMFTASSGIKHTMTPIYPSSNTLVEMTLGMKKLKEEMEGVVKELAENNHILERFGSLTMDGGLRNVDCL
Description: co-immunoprecipitation from transfected 293T cells.

B1: FLAG-γ134.5 Δ30 (other)
chain: STPNSEPAVRSAPAAAPPPPPASGPPPSCSLLLRQWLHVPESASDDDDDDDWPDSPPPEPAPEARPTAAAPRPRSPPPGAGPGGGANPSHPPSRPFRLPPRLALRLRVTAEHLARLRLRRAGGEGAPEPPATPATPATPATPATPATPATPATPATPATPARVRFSPHVRVRHLVVWASAARLARRGSWARERADRARFRRRVAEAEAVIGPCLGPEARARALARGAGPANSV
notes: Deletion 'encompassing amino acids 1 to 30'
For B1, the binding result is “binds”.

B2: FLAG-γ134.5 Δ72 (other)
chain: MARRRRHRGPRRPRPPGPTGAVPTAQSQVASDDDDDDDWPDSPPPEPAPEARPTAAAPRPRSPPPGAGPGGGANPSHPPSRPFRLPPRLALRLRVTAEHLARLRLRRAGGEGAPEPPATPATPATPATPATPATPATPATPATPATPARVRFSPHVRVRHLVVWASAARLARRGSWARERADRARFRRRVAEAEAVIGPCLGPEARARALARGAGPANSV
notes: Deletion 'encompassing amino acids 30 to 72'; the printed limits overlap with the neighbouring deletions, so the exact junction is uncertain
For the molecule B2, the binding result is reported as “binds”.

B3: FLAG-γ134.5 N159 (other)
chain: MARRRRHRGPRRPRPPGPTGAVPTAQSQVTSTPNSEPAVRSAPAAAPPPPPASGPPPSCSLLLRQWLHVPESASDDDDDDDWPDSPPPEPAPEARPTAAAPRPRSPPPGAGPGGGANPSHPPSRPFRLPPRLALRLRVTAEHLARLRLRRAGGEGAPE
notes: Carboxyl-terminal domain deleted; the exact last residue (158 or 159) is uncertain
Take B3: the binding result was “binds”.
